Biological target: Terbium (Tb) labeled-SNAP tagged ROBO2 expressed on HEK293 cells (Homo sapiens (Human)) (UniProt Q9HCK4)
Assay: HTRF competition, competitor d2-SLIT2-N, ROBO2 HEK293 cells

Chain of Terbium (Tb) labeled-SNAP tagged ROBO2 expressed on HEK293 cells (Homo sapiens (Human)) (Q9HCK4 22-1378): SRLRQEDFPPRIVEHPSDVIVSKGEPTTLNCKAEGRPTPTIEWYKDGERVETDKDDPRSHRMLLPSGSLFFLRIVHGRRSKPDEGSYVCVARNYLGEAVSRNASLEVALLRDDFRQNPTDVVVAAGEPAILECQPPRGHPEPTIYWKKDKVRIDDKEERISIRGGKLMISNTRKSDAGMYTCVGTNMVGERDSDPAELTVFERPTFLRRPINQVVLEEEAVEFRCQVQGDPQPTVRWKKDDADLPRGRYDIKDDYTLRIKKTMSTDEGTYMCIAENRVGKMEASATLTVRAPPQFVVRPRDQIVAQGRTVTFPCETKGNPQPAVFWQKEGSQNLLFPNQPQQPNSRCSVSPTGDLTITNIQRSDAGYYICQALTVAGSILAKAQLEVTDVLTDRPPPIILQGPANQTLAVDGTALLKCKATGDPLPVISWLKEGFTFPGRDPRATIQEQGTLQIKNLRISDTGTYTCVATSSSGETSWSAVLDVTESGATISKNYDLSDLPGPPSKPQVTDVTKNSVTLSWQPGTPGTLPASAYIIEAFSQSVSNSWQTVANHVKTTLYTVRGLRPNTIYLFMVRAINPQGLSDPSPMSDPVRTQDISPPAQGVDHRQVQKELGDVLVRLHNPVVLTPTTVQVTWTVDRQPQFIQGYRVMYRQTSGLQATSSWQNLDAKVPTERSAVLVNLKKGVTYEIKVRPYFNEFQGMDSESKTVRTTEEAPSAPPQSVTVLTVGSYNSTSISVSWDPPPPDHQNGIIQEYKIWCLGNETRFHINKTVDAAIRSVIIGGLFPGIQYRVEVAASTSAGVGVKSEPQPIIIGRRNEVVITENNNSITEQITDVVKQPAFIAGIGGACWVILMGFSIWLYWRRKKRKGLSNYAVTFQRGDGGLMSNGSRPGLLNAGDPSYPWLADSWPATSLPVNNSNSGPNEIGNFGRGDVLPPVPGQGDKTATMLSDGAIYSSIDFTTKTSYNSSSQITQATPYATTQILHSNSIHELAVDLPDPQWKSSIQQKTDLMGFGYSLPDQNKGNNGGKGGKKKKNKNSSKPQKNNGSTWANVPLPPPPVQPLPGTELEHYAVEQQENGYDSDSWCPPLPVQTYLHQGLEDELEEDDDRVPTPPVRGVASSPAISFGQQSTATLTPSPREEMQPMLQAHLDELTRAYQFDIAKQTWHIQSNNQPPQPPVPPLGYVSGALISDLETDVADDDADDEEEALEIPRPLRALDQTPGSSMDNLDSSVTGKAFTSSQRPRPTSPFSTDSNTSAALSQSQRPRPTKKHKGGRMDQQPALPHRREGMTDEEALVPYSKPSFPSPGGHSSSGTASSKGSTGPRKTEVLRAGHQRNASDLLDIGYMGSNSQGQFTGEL

- IC50: 125 nM
Substance: Control Ab (antibody)
